Target: T1, Ci-FoxA-a (Ci-Fkh/HNF-3beta) (Ciona intestinalis, UniProt Q4H3J7 131-225)
T1 sequence: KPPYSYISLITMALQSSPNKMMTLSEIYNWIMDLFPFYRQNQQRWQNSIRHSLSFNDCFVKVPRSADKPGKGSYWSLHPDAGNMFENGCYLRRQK
Assay: competition

B1: 27-52 Fox (distal) (dsDNA)
DNA 1: CTACACCCATATTTGAAGACCAAA
DNA 2: TTTGGTCTTCAAATATGGGTGTAG
binding result: binds

Reference: PMC2666983
